The text below walks through data of patent US7250164.

In the assay the target is HmenB3 monoclonal antibody against Neisseria meningitidis serogroup B capsular polysaccharide. The assay is described as follows: cell-based or functional assay.

B1: Naid60 anti-idiotypic monoclonal antibody (Ab2) to HmenB3 (antibody, IgG1, V domains shown)
VH: EVKLVESGGGLVQPGGSLKLSCATSGFLFTDYYMFWVRQTPEKRLEWVAYISNGGGDTYYPDTVKGRFTISRDNAKNALYLQMSRLKSEDTAMYYCARHKGYYGYYYALDYWGQGT
VL: DIQLTQSPATLSVTPGDSVSLSCRASQSISNNLHWYQQKSHESPRLLIKYASQSISGIPSRFSGSGSGTDFTLSINSVETEDFGMYFCQQSNNWPLTFGAGTK
B1 gave a bacterial cell death rate (complement-mediated bactericidal activity of HmenB3 against NMGB) at 4 mg/L Naid60 of 57.7% and a bacterial cell death rate (complement-mediated bactericidal activity of HmenB3 against NMGB) at 40 mg/L Naid60 of 0%.
